Assay results: PMC5548745, “Agonist-induced dimer dissociation as a macromolecular step in G protein-coupled receptor signaling” (Nature Communications, 2017)
Substitutions are numbered along the chain they refer to. Numbers in names are those of the source. Each block holds one molecule with its values, some of them ahead of it.

Tests used:
[1] = circular dichroism of synthetic TM peptides; format: physicochemical; details: DDM detergent solution; lipophilic environment
Protocol: CD spectra were recorded using a J-810 spectropolarimeter (Jasco, Easton, MD, USA) in a 0.1 cm quartz cuvette. Far-UV CD spectra were collected over 190–260 nm. ITC measurements were carried out at 20 °C on an ITC (VP–ITC 200, MicroCal). 820 µM FZD6 TM5 and 165 µM FZD6 TM4 were dissolved in 0.5% DDM in water. 2 µl of TM5 peptide were injected into 260 µl TM4 during each titration. The ITC data were analyzed with the Origin 7.0 software.
Supplementary Figure 5: Circular dichroism (CD) and isothermal titration calorimetry (ITC) experiments for structural analysis of synthetic peptides resembling TM1, 4, 5 and mutant TM5 and of peptide-peptide interactions, related to Figure 3. Synthetic peptides (for sequence see Supplementary Fig. 9) resembling TM1 (a), 4 (b), 5 (c) and mutant TM5 (d) were used for CD experiments in triple distilled water with increasing DDM concentrations (0% DDM – black, 0.01% DDM – blue, 0.1% DDM – green and 0.5% DDM – red). (c)TM5 is unstructured in TDW and begins to gain structure at 0.1% DDM. It forms a clear α-helical structure in 0.5% DDM. The triple mutated TM5 (d) forms an α-helix in a much lower DDM concentration (0.01% DDM). […]

FZD6–FZD6 dimer = assay: dcFRAP of V5-FZD6-mCherry/FZD6-GFP (FZD6 dimerization); format: cell-based, human; details: HEK293; for dimerization by CL-induced decrease of mobile fraction: GFP-tagged mutant with wt V5-FZD6-mCherry, anti-V5/avidin crosslinking
Protocol: For dual color FRAP experiments, cells grown in four compartment 35 mm glass bottom dishes were washed three times with BE buffer[19] (150 mM NaCl, 2.5 mM KCl, 10 mM HEPES, 12 mM glucose, 0.5 mM CaCl2, and 0.5 mM MgCl2). Then, the cells were incubated at RT for 30 min with biotin-conjugated goat polyclonal anti-V5 antibody (Bethyl) diluted 1:100 in BE buffer supplemented with 2.5% bovine serum albumin. For antibody-mediated cross-linking, avidin was added and incubated for 15 min and washed two times with BE buffer before the experiments were performed. In Fig. 4, dcFRAP experiments are presented that employ chemical surface crosslinking to visualize assembly of FZD6 with DVL or heterotrimeric G proteins according to previously published protocols. Live cell imaging experiments were carried out using a Zeiss 710 laser scanning microscope. Images were acquired using a 40×, 1.2 NA C-Apochromat objective and the 488 nm and the 561 nm laser lines were used to excite GFP and mCherry fluorophores, respectively. Photobleaching was performed by 100% laser illumination of a 1.80 × 1.80 µm area placed over the cell plasma membrane. Fluorescence was measured pre- and post-bleach using low-intensity illumination for a total time period of 100 s. Average pixel intensity was measured using the ZEN2013 software, corrected for background fluctuations and bleaching artifacts and normalized to pre-bleached intensity. The recovered mobile fraction (F m) was calculated as follows: F m = (I P–I 0)/(I I–I 0), where I I is the initial intensity measured prior to bleaching, I 0 is the immediate fluorescence intensity post-bleaching and I P is intensity value post-bleaching. The mobile fraction was defined by the average of the fluorescence recovery assessed between time 85–101 s (including pre-bleach measurements). We excluded experiments in which the extracellularly tagged receptors were not sufficiently immobilized after the crosslinking procedure (cutoff at 40% crosslinking-induced reduction in mobile fraction). Kinetic determination of mobile fractions of crosslinked V5-FZD6-mCherry and FZD6-GFP with WNT stimulation over time were performed in one cell culture well. Measurements for each time point were performed on separate cells.
Statistical and graphical analysis was performed using Graph Pad Prism 5 software. Data were analyzed by two-tailed t-test or one-way ANOVA with Fisher’s least significant difference post hoc analysis. Curve fitting of FRAP data was done with a two-phase association nonlinear function using the least square fit. Data for receptor titration in the presence of C59 and output to P-ERK1/2 in Fig. 6h was fit to a linear regression model. All experiments were repeated at least three times in independent experiments (not representing technical replicates). For single cell analysis (dcFRAP), the number of the individual ROIs obtained from several cells in at least three independent experiments is provided in the figure legends. Data from individual ROIs are summarized for data presentation providing the sum of independent observations. Significance levels are given as: *P < 0.05; **P < 0.01; ***P < 0.001. Data in FRAP curves and bar graphs (FRAP) are presented as mean ± s.e.m.

secondary structure in detergent (CD) [1]: structured and α-helical
Molecule: KKKVWFHAVAWGTPGFLTVMLLAMNKKK [TM4, synthetic peptide of FZD6 transmembrane helix 4]

B1: FZD6 dimer control mutant: FZD6 with D365E, R368K, Y369F (protein)
chain: HSLFTCEPITVPRCMKMAYNMTFFPNLMGHYDQSIAAVEMEHFLPLANLECSPNIETFLCKAFVPTCIEQIHVVPPCRKLCEKVYSDCKKLIDTFGIRWPEELECDRLQYCDETVPVTFDPHTEFLGPQKKTEQVQRDIGFWCPRHLKTSGGQGYKFLGIDQCAPPCPNMYFKSDELEFAKSFIGTVSIFCLCATLFTFLTFLIDVRRFRYPERPIIYYSVCYSIVSLMYFIGFLLGDSTACNKADEKLELGDTVVLGSQNKACTVLFMLLYFFTMAGTVWWVILTITWFLAAGRKWSCEAIEQKAVWFHAVAWGTPGFLTVMLLAMNKVEGDNISGVCFVGLYDLEASKFFVLLPLCLCVFVGLSLLLAGIISLNHVRQVIQHDGRNQEKLKKFMIRIGVFSGLYLVPLVTLLGCYVYEQVNRITWEITWVSDHCRQYHIPCPYQAKAKARPELALFMIKYLMTLIVGISAVFWVGSKKTCTEWAGFFKRNRKRDPISESRRVLQESCEFFLKHNSKVKHKKKHYKPSSHKLKVISKSMGTSTGATANHGTSAVAITSHDYLGQETLTEIQTSPETSMREVKADGASTPRLREQDCGEPASPAASISRLSGEQVDGKGQAGSVSESARSEGRISPKSDITDTGLAQSNNLQVPSSSEPSSLKGSTSLLVHPVSGVRKEQGGGCHSDT
modifications: left off: GFP, C-terminal, kept
notes: FZD6 with D365E, R368K, Y369F
dimerization by CL-induced decrease of mobile fraction (FZD6–FZD6 dimer): maintained the intrinsic ability of FZD6 to form dimers

B2: FZD6 F337A mutant: FZD6 with F337A mutation on TM4 (protein)
chain: B1 chain with F319A, E347D, K350R, F351Y
dimerization by CL-induced decrease of mobile fraction (FZD6–FZD6 dimer): exhibited a reduced ability to dimerize

B3: DVL2-MYC: overexpressed MYC-tagged DVL2 (protein, UniProt O14641 1-736, looked up)
Segment polarity protein …: MAGSSTGGGGVGETKVIYHLDEEETPYLVKIPVPAERITLGDFKSVLQRPAGAKYFFKSMDQDFGVVKEEISDDNARLPCFNGRVVSWLVSSDNPQPEMAPPVHEPRAELAPPAPPLPPLPPERTSGIGDSRPPSFHPNVSSSHENLEPETETESVVSLRRERPRRRDSSEHGAGGHRTGGPSRLERHLAGYESSSTLMTSELESTSLGDSDEEDTMSRFSSSTEQSSASRLLKRHRRRRKQRPPRLERTSSFSSVTDSTMSLNIITVTLNMEKYNFLGISIVGQSNERGDGGIYIGSIMKGGAVAADGRIEPGDMLLQVNDMNFENMSNDDAVRVLRDIVHKPGPIVLTVAKCWDPSPQAYFTLPRNEPIQPIDPAAWVSHSAALTGTFPAYPGSSSMSTITSGSSLPDGCEGRGLSVHTDMASVTKAMAAPESGLEVRDRMWLKITIPNAFLGSDVVDWLYHHVEGFPERREARKYASGLLKAGLIRHTVNKITFSEQCYYVFGDLSGGCESYLVNLSLNDNDGSSGASDQDTLAPLPGATPWPLLPTFSYQYPAPHPYSPQPPPYHELSSYTYGGGSASSQHSEGSRSSGSTRSDGGAGRTGRPEERAPESKSGSGSESEPSSRGGSLRRGGEASGTSDGGPPPSRGSTGGAPNLRAHPGLHPYGPPPGMALPYNPMMVVMMPPPPPPVPPAVQPPGAPPVRDLGSVPPELTASRQSFHMAMGNPSEFFVDVM
modifications: MYC tag
effect of altered DVL level on FZD6 dimer formation (FZD6–FZD6 dimer; V5-FZD6-mCherry/FZD6-GFP, pan-DVL siRNA or overexpressed DVL2-MYC): Absence of a role for DVL and G proteins in FZD6 dimer formation
